# Reference: patent US20250320281A1
# Tests used:
# Test in all cases: cell-based or functional assay
# [1] = target: HIV-1 NL43 envelope glycoprotein (Env) on pseudovirus (HIV-1 isolate NL43 (clade B))
# [2] = target: HIV-1 MGRM-C-027 envelope glycoprotein (Env) on pseudovirus (HIV-1 isolate MGRM-C-027 (clade C))
# [3] = target: HIV-1 MGRM-A-010 envelope glycoprotein (Env) on pseudovirus (HIV-1 isolate MGRM-A-010 (clade A))
# [4] = target: HIV-1 Env of isolate DU156 (clade C pseudovirus) (HIV-1)
# [5] = target: HIV-1 Env of isolate CAAN (clade B pseudovirus) (HIV-1)
# [6] = target: HIV-1 Env of isolate REJ04541 (clade B pseudovirus) (HIV-1)
# [7] = target: HIV-1 Env of isolate AC10 (clade B pseudovirus) (HIV-1)
# [8] = target: HIV-1 Env of isolate THRO.18 (clade B pseudovirus) (HIV-1)
# [9] = target: HIV-1 Env of isolate MGRM-F1-010 (HIV-1)
# [10] = target: HIV-1 Env of pseudovirus MGRM-AG-013 (subtype AG) (HIV-1)
# [11] = target: HIV-1 Env of isolate MG RM-D-028 (HIV-1)
# [12] = target: HIV-1 Env of isolate MGRM-F1-012 (HIV-1)
# [13] = target: HIV-1 Env of pseudovirus MGRM-AG-012 (subtype AG) (HIV-1)
# [14] = target: HIV-1 Env of pseudovirus MGRM-AG-006 (subtype AG) (HIV-1)
# [15] = target: HIV-1 92UG024 Env (HIV-1)
# [16] = target: HIV-1 94UG103 Env (HIV-1)
# [17] = target: HIV-1 MGRM-D-001 Env (HIV-1)
# HIV-1 APV17 Env (HIV-1) = target: HIV-1 APV17 Env (HIV-1)
# [18] = target: HIV-1 MGRM-C-028 Env (HIV-1)
# [19] = target: HIV-1 92TH021 Env (HIV-1)
# HIV-1 APV13 Env (HIV-1) = target: HIV-1 APV13 Env (HIV-1)
# HIV-1 NL43 Env (HIV-1) = target: HIV-1 NL43 Env (HIV-1)
# [20] = target: HIV-1 93UG077 Env (HIV-1)
# HIV-1 CMU02 Env (HIV-1) = target: HIV-1 CMU02 Env (HIV-1)
# [21] = target: HIV-1 MGRM-C-026 Env (HIV-1)
# [22] = target: HIV-1 Env of isolate MGRM-F1-015 (clade F), on pseudovirus (HIV-1)
# [23] = target: HIV-1 Env of isolate MG RM-D-022 (clade D), on pseudovirus (HIV-1)
# [24] = target: HIV-1 Env of isolate MGRM-F1-017 (clade F pseudovirus) (HIV-1)
# [25] = target: HIV-1 Env of isolate MGRM-F1-022 (clade F pseudovirus) (HIV-1)
# [26] = target: HIV-1 MGRM-C-028 Env (pseudovirus) (HIV-1 isolate MGRM-C-028 (clade C))
# [27] = target: HIV-1 MGRM-D-018 Env (pseudovirus) (HIV-1 isolate MGRM-D-018 (clade D))
# [28] = target: HIV-1 92UG005 Env (pseudovirus) (HIV-1 isolate 92UG005 (clade D))
# [29] = target: HIV-1 94UG103 Env (pseudovirus) (HIV-1 isolate 94UG103 (clade A))
# [30] = target: HIV-1 MGRM-C-026 Env (pseudovirus) (HIV-1 isolate MGRM-C-026 (clade C))
# [31] = target: HIV-1 Env of isolate 94UG103 (pseudovirus) (HIV-1)
# Chain of 1443_C16 (PG16) (TCN-116) (antibody) (VH): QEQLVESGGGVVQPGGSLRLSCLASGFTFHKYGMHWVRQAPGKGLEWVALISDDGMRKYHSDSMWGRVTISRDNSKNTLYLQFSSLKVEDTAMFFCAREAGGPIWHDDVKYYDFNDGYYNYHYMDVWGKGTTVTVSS
# Chain of 1443_C16 (PG16) (TCN-116) (antibody) (VL): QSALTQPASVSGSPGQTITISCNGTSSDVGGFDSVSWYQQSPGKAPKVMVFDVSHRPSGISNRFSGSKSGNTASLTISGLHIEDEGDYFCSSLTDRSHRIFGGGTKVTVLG
substance,measurement,setting,value
1496_C09 (PG9) (TCN-109) (antibody),neutralization IC50,[1],0.687 µg/mL
same,neutralization IC50,[2],2.45 µg/mL
same,neutralization IC50,[3],0.0375 µg/mL
same,neutralization IC80,[3],0.121 µg/mL
same,neutralization IC90,[3],0.242 µg/mL
same,neutralization IC95,[3],0.456 µg/mL
1443_C16 (PG16) (TCN-116) (antibody),"IC50 (neutralization, TZM-bl pseudovirus assay)",[4],< 0.01 µg/mL
same,"IC50 (neutralization, TZM-bl pseudovirus assay)",[5],6.37 µg/mL
same,"IC50 (neutralization, TZM-bl pseudovirus assay)",[6],< 0.01 µg/mL
same,"IC50 (neutralization, TZM-bl pseudovirus assay)",[7],< 0.01 µg/mL
same,"IC50 (neutralization, TZM-bl pseudovirus assay)",[8],2.19 µg/mL
VRC01 (antibody),IC50,[9],0.097 µg/mL
same,"IC50, pseudovirus neutralization",[10],0.197 µg/mL
same,IC50,[11],0.377 µg/mL
same,IC50,[12],0.488 µg/mL
same,"IC50, pseudovirus neutralization",[13],0.031 µg/mL
same,"IC50, pseudovirus neutralization",[14],0.344 µg/mL
4877_D15 (PGT-122) (antibody),"Neutralization by PGT-122, IC50",[15],> 10 µg/mL
same,"Neutralization by PGT-122, IC80",[15],> 10 µg/mL
same,"Neutralization by PGT-122, IC90",[15],> 10 µg/mL
same,"Neutralization by PGT-122, IC95",[15],> 10 µg/mL
same,"Neutralization by PGT-122, IC50",[16],1.46 µg/mL
same,"Neutralization by PGT-122, IC80",[16],6.58 µg/mL
same,"Neutralization by PGT-122, IC90",[16],> 10 µg/mL
same,"Neutralization by PGT-122, IC95",[16],> 10 µg/mL
same,"Neutralization by PGT-122, IC50",[17],0.867 µg/mL
same,"Neutralization by PGT-122, IC80",[17],4.48 µg/mL
same,"Neutralization by PGT-122, IC90",[17],> 10 µg/mL
same,"Neutralization by PGT-122, IC95",[17],> 10 µg/mL
same,"Neutralization by PGT-122, IC50",HIV-1 APV17 Env (HIV-1),0.522 µg/mL
same,"Neutralization by PGT-122, IC80",HIV-1 APV17 Env (HIV-1),1.76 µg/mL
same,"Neutralization by PGT-122, IC90",HIV-1 APV17 Env (HIV-1),3.58 µg/mL
same,"Neutralization by PGT-122, IC95",HIV-1 APV17 Env (HIV-1),6.92 µg/mL
same,"Neutralization by PGT-122, IC50",[18],2.06 µg/mL
same,"Neutralization by PGT-122, IC80",[18],> 10 µg/mL
same,"Neutralization by PGT-122, IC90",[18],> 10 µg/mL
same,"Neutralization by PGT-122, IC95",[18],> 10 µg/mL
same,"Neutralization by PGT-122, IC50",[19],> 10 µg/mL
same,"Neutralization by PGT-122, IC80",[19],> 10 µg/mL
same,"Neutralization by PGT-122, IC90",[19],> 10 µg/mL
same,"Neutralization by PGT-122, IC95",[19],> 10 µg/mL
same,"Neutralization by PGT-122, IC50",HIV-1 APV13 Env (HIV-1),0.992 µg/mL
same,"Neutralization by PGT-122, IC80",HIV-1 APV13 Env (HIV-1),4.14 µg/mL
same,"Neutralization by PGT-122, IC90",HIV-1 APV13 Env (HIV-1),8.6 µg/mL
same,"Neutralization by PGT-122, IC95",HIV-1 APV13 Env (HIV-1),> 10 µg/mL
same,"Neutralization by PGT-122, IC50",HIV-1 NL43 Env (HIV-1),> 10 µg/mL
same,"Neutralization by PGT-122, IC80",HIV-1 NL43 Env (HIV-1),> 10 µg/mL
same,"Neutralization by PGT-122, IC90",HIV-1 NL43 Env (HIV-1),> 10 µg/mL
same,"Neutralization by PGT-122, IC95",HIV-1 NL43 Env (HIV-1),> 10 µg/mL
same,"Neutralization by PGT-122, IC50",[20],0.191 µg/mL
same,"Neutralization by PGT-122, IC80",[20],0.931 µg/mL
same,"Neutralization by PGT-122, IC90",[20],2.1 µg/mL
same,"Neutralization by PGT-122, IC95",[20],3.88 µg/mL
same,"Neutralization by PGT-122, IC50",HIV-1 CMU02 Env (HIV-1),> 10 µg/mL
same,"Neutralization by PGT-122, IC80",HIV-1 CMU02 Env (HIV-1),> 10 µg/mL
same,"Neutralization by PGT-122, IC90",HIV-1 CMU02 Env (HIV-1),> 10 µg/mL
same,"Neutralization by PGT-122, IC95",HIV-1 CMU02 Env (HIV-1),> 10 µg/mL
same,"Neutralization by PGT-122, IC50",[21],0.0089 µg/mL
same,"Neutralization by PGT-122, IC80",[21],0.037 µg/mL
same,"Neutralization by PGT-122, IC90",[21],0.0849 µg/mL
same,"Neutralization by PGT-122, IC95",[21],0.181 µg/mL
PGV04 (antibody),"IC50 (µg/mL), pseudovirus neutralization",[22],0.179 µg/mL
same,"IC50 (µg/mL), pseudovirus neutralization",[23],> 50 µg/mL
same,"IC50 (µg/mL), pseudovirus neutralization",[24],2.38 µg/mL
same,"IC50 (µg/mL), pseudovirus neutralization",[25],0.072 µg/mL
5123_A06 (PGT-125) (antibody),"Neutralization by PGT-125, IC50",[26],5.78 µg/mL
same,"Neutralization by PGT-125, IC80",[26],> 10 µg/mL
same,"Neutralization by PGT-125, IC90",[26],> 10 µg/mL
same,"Neutralization by PGT-125, IC95",[26],> 10 µg/mL
same,"Neutralization by PGT-125, IC50",[27],0.0382 µg/mL
same,"Neutralization by PGT-125, IC80",[27],0.144 µg/mL
same,"Neutralization by PGT-125, IC90",[27],0.339 µg/mL
same,"Neutralization by PGT-125, IC95",[27],0.892 µg/mL
same,"Neutralization by PGT-125, IC50",[28],> 10 µg/mL
same,"Neutralization by PGT-125, IC80",[28],> 10 µg/mL
same,"Neutralization by PGT-125, IC90",[28],> 10 µg/mL
same,"Neutralization by PGT-125, IC95",[28],> 10 µg/mL
same,"Neutralization by PGT-125, IC50",[29],0.0124 µg/mL
same,"Neutralization by PGT-125, IC80",[29],0.0373 µg/mL
same,"Neutralization by PGT-125, IC90",[29],0.071 µg/mL
same,"Neutralization by PGT-125, IC95",[29],0.129 µg/mL
same,"Neutralization by PGT-125, IC50",[30],0.0106 µg/mL
same,"Neutralization by PGT-125, IC80",[30],0.035 µg/mL
same,"Neutralization by PGT-125, IC90",[30],0.0705 µg/mL
same,"Neutralization by PGT-125, IC95",[30],0.134 µg/mL
4858_P08 (PGT-123) (antibody),Primary Neutralization Index (B cell culture supernatant),[31],1.1
